The assay addresses GST-ArhGAP12 ΔNΔP R582A (mouse (NIH 3T3 cDNA library)) (UniProt S4R248). The assay is described as follows: BLI. In general terms: BLI is a label-free optical method that tracks binding on a fibre tip over time.

For the substance “Rabbit skeletal muscle LatB-actin (from UniProt P68135 1-377) (natural protein)”, the fold reduction of binding affinity against wild type was 1300 fold.

(Values after article PMC6960015.)
